# B1: dd-SB100X: ecDHFR destabilizing domain fused via linker to N-terminus of SB100X transposase; SEQ ID NO: 2 (protein)
# chain: MISLIAALAVDYVIGMENAMPWNLPADLAWFKRNTLNKPVIMGRHTWESIGRPLPGRKNIILSSQPSTDDRVTWVKSVDEAIAACGDVPEIMVIGGGRVIEQFLPKAQKLYLTHIDAEVEGDTHFPDYEPDDWESVFSEFHDADAQNSHSYCFEILERKLGGGAPAVGGGPKMGKSKEISQDLRKRIVDLHKSGSSLGAISKRLAVPRSSVQTIVRKYKHHGTTQPSYRSGRRRVLSPRDERTLVRKVQINPRTTAKDLVKMLEETGTKVSISTVKRVLYRHNLKGHSARKKPLLQNRHKKARLRFATAHGDKDRTFWRNVLWSDETKIELFGHNDHRYVWRKKGEACKPKNTIPTVKHGGGSIMLWGCFAAGGTGALHKIDGIMDAVQYVDILKQHLKTSVRKLKLGRKWVFQHDNDPKHTSKVVAKWLKDNKVKVLEWPSQSPDLNPIENLWAELKKRVRARRPTNLTQLHQLCQEEWAKIHPNYCGKLVEGYPKRLTQVKQFKGNATKY
# modifications: misc_feature 1..1539 ecDHFR-SB100X
# What was measured:
# Format in all cases: cell-based, human
# CD8+ T cells = experiment: Gene transfer in CD8+ T cells with TMP priming before nucleofection; conditions: day 7
# Experimental: CD8+ T cells were isolated from healthy donor PBMC and activated with CD3/CD28 bead stimulation. […] Cells were nucleofected with CD19-CAR_EGFRt SB transposon minicircle DNA and plasmid encoding either the wild type SB transposase (SB100X) or the fusion-transposase (dd-SB100X). […] At 7 days post-nucleofection, flow cytometric analysis was performed to determine the percentage of T cells that expresses the EGFRt reporter. Top panel: Dot plots show EGFRt expression on day 7 post-nucleofection.
# (§1) Anonymous healthy donor blood samples were received upon written consent to participate in research protocols approved by the Institutional Review Board of the Universitätsklinikum Würzburg (UKW). Blood samples were processed for T cells isolation as published earlier (Querques et al., 2019). Briefly, Peripheral blood mononuclear cells (PBMCs) were isolated by density centrifugation with Biocoll separating solution (Biochrom). Both CD4+ and CD8+ T cells were sorted by negative isolation approach using microbeads and magnetic associated cell sorting (MACS, Miltenyi) methods as described by the manufacturer. The isolated CD4+ and CD8+ T cells were cultured in T cell medium (RPMI-1640 with 10% (vol/vol) human serum, 2 mM L-glutamine, 100 U ml-1 penicillin-streptomycin) containing IL-2 (50 units per mL) and activated by anti-CD3/CD28 bead stimulation (Thermo Fisher). Two days post-activation, approximately 2 million T cells were nucleofected with vectors (1 μg of CD19 CAR (EGFRt)-encoding transposon as plasmid or minicircle DNA; 1 μg of mRNA encoding SB transposase) or 10 μg of hsSB protein (Querques et al., 2019) using a 4D Nucleofector (Lonza) as per the manufacturer's instructions. CD19 CAR-modified (i.e., EGFRt+) T cells were enriched using biotin-conjugated anti-EGFR monoclonal antibody and anti-biotin beads (Miltenyi) as per the manufacturer's instructions. […]
# CD4+ T cells = experiment: CAR gene transfer (EGFRt flow cytometry) in CD4+ T cells, dd-SB100X vs wild type SB100X plasmid; conditions: day 7
# Experimental: (4A) CAR gene transfer in CD4+ T cells using dd-SB100X fusion-transposase vs. wild type SB100X transposase. CD3/CD28 activated CD4+ T cells were nucleofected with CD19-CAR_EGFRt SB transposon minicircle DNA and plasmid encoding either the fusion-transposase (pdd-SB100X/dd-SB100X) or the wild type SB transposase (pSB100X/SB100X). At 7 days post-nucleofection, flow cytometric analysis was performed to determine the percentage of T cells that express the EGFRt reporter. Top panel: Dot plots show EGFRt expression on day 7 post-nucleofection.
# as §1, with “instructions.” for “instructions. CD19 CAR-modified (i.e., EGFRt+) T cells were enriched using biotin-conjugated anti-EGFR monoclonal antibody and anti-biotin beads (Miltenyi) as per the manufacturer's instructions.”
# We next investigated if the dd-SB100X fusion-transposase retained transposition activity in primary human T cells. […] We observed differences in CD19-CAR_EGFRt expression, as evidenced by mean fluorescence intensity (MFI) of EGFRt by flow cytometry.
# HeLa cells = experiment: Transposition assay (G-418-resistant colonies) in HeLa cells; conditions: presence of TMP
# Description: (2D) Transposition assay for evaluating the activity of dd-SB100X fusion-transposase. HeLa cells were transfected with neomycin-marked transposon plasmid and construct expressing wild type SB transposase (SB100X) or fusion-transposase (dd-SB100X), and selected for transposition events by antibiotic selection with G-418. Data representing the number of G-418-resistant colonies are shown on the right.
# An transposon donor vector with neomycin resistance gene was generated de novo in house using Gibson assembly. In order to test the activity (in terms of integration capability) of the fusion-transposase (dd-SB100X) transposition assay was performed in HeLa cells as per the published protocol (Ivics et al., 1997). Briefly, ˜150,000 HeLa cells were seeded into each well of a 6-well plate a day before transfection. […] After 10 days of selection, cells were washed with PBS, fixed with tissue culture fixing solution, stained with methylene blue and counted.
# We next examined the activity of the fusion-transposase (dd-SB100X) by standard transposition assay wherein we transfected HeLa cells with a SB transposon donor plasmid encoding a neomycin resistance gene, together with plasmid encoding SB100X as a positive control, or the fusion-transposase protein. […] After 10 days, colonies were fixed, stained and counted to determine the integration events achieved under each of the experimental conditions.
# CD19 CAR T cells = experiment: Transposon (CAR) copy number analysis by ddPCR in CAR T cells; conditions: plasmid-encoded transposase, EGFRt-enriched CAR T cells
# Experimental: (4C) CAR Copy number analysis of CD8+ CD19 CAR T cells engineered with dd-SB100X fusion transposase. The number of integrations per genome was analyzed by ddPCR. Data shown are mean values of three biological replicates measured in technical triplicates and shown ±S.E.M. The data was analyzed using unpaired, two-tailed Student's T-test and differences were statistically significant (*, p=0.0274).
# (6D) Transposon copy number analysis in EGFRt+ CD8+ T cells that were nucleofected with CD19-CAR_EGFRt SB transposon minicircle DNA and mRNA encoding either the wild type SB transposase (SB100X) or the fusion-transposase (dd-SB100X) assessed by digital droplet PCR.
# Genomic DNA (gDNA) of CAR-positive T cells was isolated using dPureLink gDNA Mini Kit (Invitrogen, California, USA). Droplet digital PCR (ddPCR) was set up and analyzed in technical triplicates. Each ddPCR reaction contained ready-to-use ddPCR Supermix for Probes No dUTP (Bio-Rad, California, USA), 20 ng of the respective fragmented gDNA, 0.2 μL of CviQl (10 000 U/mL) (NEB, Frankfurt am Main, Germany), 0.1 μL of Dpnl (20,000 U/mL) (NEB, Frankfurt am Main, Germany), 200 nM of each respective ddPCR FAM/HEX probe, and 600 nM of each respective forward and reverse primer in a final volume of 25 μL. CviQl was used to fragment the gDNA to ensure single-copies per droplet. DPNI was used to specifically digest non-integrated vectors. […]
# K562/CD19 target cells = experiment: Antigen specific proliferation (CFSE dye dilution) of CD19 CAR T cells; conditions: 72 hours, stimulation with K562/CD19 target cells
# Experimental: (4E) Antigen specific proliferation by CD4+ CD19 CAR T cells engineered with dd-SB100X fusion transposase. Proliferation of CD4+ CAR T cells was examined by CFSE dye dilution after 72 hours of co-culture with K562/CD19 or K562 target cells. For analysis, triplicate wells were pooled and the proliferation of viable 7-AAD-negative T cells was analyzed. The division index (average number of cell divisions) was calculated using FlowJo software. Data shown are mean values ±s.d. of one representative experiment.
# Anonymous healthy donor blood samples were received upon written consent to participate in research protocols approved by the Institutional Review Board of the Universitätsklinikum Würzburg (UKW). Blood samples were processed for T cells isolation as published earlier (Querques et al., 2019). Briefly, Peripheral blood mononuclear cells (PBMCs) were isolated by density centrifugation with Biocoll separating solution (Biochrom). Both CD4+ and CD8+ T cells were sorted by negative isolation approach using microbeads and magnetic associated cell sorting (MACS, Miltenyi) methods as described by the manufacturer. The isolated CD4+ and CD8+ T cells were cultured in T cell medium (RPMI-1640 with 10% (vol/vol) human serum, 2 mM L-glutamine, 100 U ml-1 penicillin-streptomycin) containing IL-2 (50 units per mL) and activated by anti-CD3/CD28 bead stimulation (Thermo Fisher). […]
molecule,measurement,setting,value
B1,MFI of EGFRt expression compared to wild type SB100X,CD8+ T cells,lower MFI
same,gene transfer (EGFRt+ T cells),CD8+ T cells; not primed with TMP,~26.1%
same,gene transfer (EGFRt+ T cells),CD8+ T cells; primed with TMP 1000 nM for 24 hours before nucleofection,~29.7%
same,gene transfer rate (EGFRt+ T cells),CD4+ T cells; cultured in absence of TMP after nucleofection,~6.6%
same,gene transfer rate (EGFRt+ T cells),"CD4+ T cells; dd-SB100X cultured in presence of TMP after nucleofection, SB100X wild type control",~18%
same,MFI of EGFRt compared to wild type SB100X,CD4+ T cells; presence of TMP,lower MFI
same,transposition activity,HeLa cells,active and mediated transposition activity
same,transposition activity compared to wild type SB100X,HeLa cells,reduced transposition activity
same,transposon copies per genome (average),CD19 CAR T cells,2.99 copies per genome
same,proliferation (cell divisions),K562/CD19 target cells,> 3 cell divisions

# Reference: patent publication US20250361284A1, “TRANSPOSASE FUSION PROTEINS FOR USE IN CELL AND GENE THERAPY” (JULIUS-MAXIMILIANS-UNIVERSITÄT WÜRZBURG, priority 2022, published 2025)
